Data on 18 proteins can be found in US20200283741.

B1: CFP-T7-H40-3M K106A (protein)
chain: MTSNRADTRVIVVGGGGTIGSSTALHLVRSGYAPANITVLDTFEIPSAQSAGHDLNKIMGIDHGNKVNLQMSLEARQMWKEDELFQPFFHNTGRMDCESTPKGIEALKKYYQKLHDAGAGLEKTHAWLDNEDEILSKMPLLQRDQIQGWKAIWSQDGGWLAAAKAINAIGQFLKERGVKFGFGGAGSFKQPLFDDEGTTCIGVETADGTKYYADKVVLAAGAWSPTLVDLEDQCCSKAWVYAHIQLTPEEAAEYKGVPVVYNSEYGFFFEPDEFGVIKVCNEFPGFSRFKEHQPYGAPSPKRISVPRSHAKHPTDTYPDASEVSIKKAIATFLPRFQDKELFNRALCWCTDTADSTLLMCEHPKWKNFILATGDSGHSFKILPNVGKYVVELIEGRLPEEMAYQWRWRPGGDALKSRRAAPPKDLADMPGWKHDPKL
B2: CFP-T7-H40-3M K113E (protein)
chain: B1 chain with A106K, K113E
B3: CFP-T7-H40-3M K113N (protein)
chain: B1 chain with A106K, K113N
B4: CFP-T7-H40-3M K106D (protein)
chain: B1 chain with A106D
B5: CFP-T7-H40-3M K113S (protein)
chain: B1 chain with A106K, K113S
B6: CFP-T7-H40-3M K113A (protein)
chain: B1 chain with A106K, K113A
B7: CFP-T7-H40-3M K113T (protein)
chain: B1 chain with A106K, K113T
B8: CFP-T7-H40-3M K113D (protein)
chain: B1 chain with A106K, K113D
B9: CFP-T7-H40-3M K113Q (protein)
chain: B1 chain with A106K, K113Q
B10: En42FX R105L (protein)
chain: MAPRANTKIIVVGGGGTMGSSTALHLLRAGYTPSNITVLDTYPIPSAQSAGYDLNKIFGISGANKHDLQLSLEAFDMWKNDPLFKPFFHNVGQMDVSSTEEGIKLLRRRYQSLLRAGIGLEKTNFLLESEDEILAKAPHFTREQIKGWKGLFCGDGGWLAAAKAINAIGQFLKEQGVKFGFGEAGTFKKPLFADADEKTCIGVETVDGTKYYADKVVLAAGAWSSTLVDLEEQCVSKAWVFAHIQLTPAEAAAYKNTPVIYDGDYGFFIEPDENGIIKVCDEFPGFTHFKMHQPYGSPVPKLISVPRSHAKHPTDTYPHASEVTIKKAINRFLPRFNDKELFNRAMCWCTDTADSNLLVCEHPRWKGFYLATGDSGHSFKLLPNIGKHVVELLEGRLESVFKDAWRWRPGSGDALKSRRAAPAKDLADMPGWRNEAKM
B11: En42FX R108S (protein)
chain: B10 chain with L105R, R108S
B12: En42FX R105D (protein)
chain: B10 chain with L105D
B13: En42FX R108A (protein)
chain: B10 chain with L105R, R108A
B14: En42FX R105A (protein)
chain: B10 chain with L105A
B15: glycated hexapeptide oxidase derived from Emericella nidulans (En42FX) (protein)
chain: B10 chain with L105R
B16: En42FX R105N (protein)
chain: B10 chain with L105N
B17: En42FX R105E (protein)
chain: B10 chain with L105E
B18: En42FX R105Q (protein)
chain: B10 chain with L105Q

Numbering of substitutions follows the chain as printed. Names and notes keep the numbering of the source.

For one data set, the target named is T1, HbA1c-type αF8P (α-fructosyl-valyl-histidyl-leucyl-threonyl-prolyl-glutamyl-glutamyl-lysine).
T1 chain: VHLTPEEK
Consider B1, for which the relative activity on substrate (reference, designated as 100%) stood at 100% and the “specific activity on substrate” value is listed as “at least 20 mU/mg”.

Regarding B2, the relative activity on substrate (reference, designated as 100%) amounted to 100% and the “specific activity on substrate” value was “at least 20 mU/mg”.

As to B3, the relative activity on substrate (reference, designated as 100%) stood at 100% and the “specific activity on substrate” value is “at least 20 mU/mg”.

For B4, the relative activity on substrate (reference, designated as 100%) stood at 100% and the “specific activity on substrate” value was “at least 20 mU/mg”.

Regarding B5, the relative activity on substrate (reference, designated as 100%) amounted to 100% and the “specific activity on substrate” value was “at least 20 mU/mg”.

For the protein B6, the relative activity on substrate (reference, designated as 100%) came to 100% and the “specific activity on substrate” value is recorded as “at least 20 mU/mg”.

For B7, the relative activity on substrate (reference, designated as 100%) came to 100% and the “specific activity on substrate” value is on record as “at least 20 mU/mg”.

Regarding B8, the relative activity on substrate (reference, designated as 100%) was 100% and the “specific activity on substrate” value is given as “at least 20 mU/mg”.

Take B9: the relative activity on substrate (reference, designated as 100%) was found to be 100% and the “specific activity on substrate” value is on record as “at least 20 mU/mg”.

The protein B10 had a relative activity on substrate (reference, designated as 100%) of 100%.

With B11, the relative activity on substrate (reference, designated as 100%) is 100%.

Consider B12, for which the relative activity on substrate (reference, designated as 100%) amounted to 100%.

Protein B13 returned a relative activity on substrate (reference, designated as 100%) of 100%.

Protein B14 yielded a relative activity on substrate (reference, designated as 100%) of 100%.

The protein B15 registered a relative activity on substrate (reference, designated as 100%) of 100%.

The protein B16 came in with a relative activity on substrate (reference, designated as 100%) of 100%.

On to B17, for which the relative activity on substrate (reference, designated as 100%) came to 100%.

Protein B18 returned a relative activity on substrate (reference, designated as 100%) of 100%.

The target in a further data set is T2, HbC1c-type αF8P.
T2 chain: VHLTPKEK
For the protein B1, the “relative activity (HbC1c/HbA1c), fold over H40-3M before modification” value is “improved by about 2.8 to 9.4 times”; the relative activity on substrate (activity on HbA1c-type αF8P = 100%) is 31%; the “specific activity on substrate” value is on record as “at least 20 mU/mg”.

As for B2, the relative activity on substrate (activity on HbA1c-type αF8P = 100%) was 91% and the “specific activity on substrate” value is “at least 20 mU/mg”.

Consider B3, for which the relative activity on substrate (activity on HbA1c-type αF8P = 100%) turned out to be 42% and the “specific activity on substrate” value is given as “at least 20 mU/mg”.

As for B4, the relative activity on substrate (activity on HbA1c-type αF8P = 100%) was determined as 48% and the “specific activity on substrate” value is “at least 20 mU/mg”.

As for B5, the “relative activity (HbC1c/HbA1c), fold over H40-3M before modification” value is “improved by about 2.8 to 9.4 times”; the relative activity on substrate (activity on HbA1c-type αF8P = 100%) was 103%; the “specific activity on substrate” value is given as “at least 20 mU/mg”.

Turning to B6, the relative activity on substrate (activity on HbA1c-type αF8P = 100%) amounted to 38% and the “specific activity on substrate” value is listed as “at least 20 mU/mg”.

As to B7, the relative activity on substrate (activity on HbA1c-type αF8P = 100%) is 40% and the “specific activity on substrate” value was “at least 20 mU/mg”.

Turning to B8, the relative activity on substrate (activity on HbA1c-type αF8P = 100%) amounted to 39% and the “specific activity on substrate” value is listed as “at least 20 mU/mg”.

With B9, the relative activity on substrate (activity on HbA1c-type αF8P = 100%) came out at 50% and the “specific activity on substrate” value is on record as “at least 20 mU/mg”.

With B10, the “relative activity (HbC1c/HbA1c), fold over En42FX before modification” value was “improved by about 1.1 to 10.8 times” and the relative activity on substrate (activity on HbA1c-type αF8P = 100%) was found to be 9%.

In the case of B11, the relative activity on substrate (activity on HbA1c-type αF8P = 100%) worked out at 10%.

As to B12, the “relative activity (HbC1c/HbA1c), fold over En42FX before modification” value was “improved by about 1.1 to 10.8 times” and the relative activity on substrate (activity on HbA1c-type αF8P = 100%) turned out to be 86%.

Take B13: the relative activity on substrate (activity on HbA1c-type αF8P = 100%) was determined as 57%.

In the case of B14, the relative activity on substrate (activity on HbA1c-type αF8P = 100%) stood at 33%.

B15: the relative activity on substrate (activity on HbA1c-type αF8P = 100%) was found to be 8%.

Take B16: the relative activity on substrate (activity on HbA1c-type αF8P = 100%) was 11%.

For the protein B17, the relative activity on substrate (activity on HbA1c-type αF8P = 100%) came out at 31%.

As to B18, the relative activity on substrate (activity on HbA1c-type αF8P = 100%) stood at 25%.

The target of another data set is T3, HbS1c-type αF8P.
T3 chain: VHLTPVEK
Consider B1, for which the “relative activity (HbS1c/HbA1c), fold over H40-3M before modification” value is given as “improved by about 2.1 to 3.3 times”; the relative activity on substrate (activity on HbA1c-type αF8P = 100%) is 81%; the “specific activity on substrate” value is “at least 20 mU/mg”.

In the case of B2, the relative activity on substrate (activity on HbA1c-type αF8P = 100%) was 97% and the “specific activity on substrate” value is recorded as “at least 20 mU/mg”.

As for B3, the relative activity on substrate (activity on HbA1c-type αF8P = 100%) is 95% and the “specific activity on substrate” value is “at least 20 mU/mg”.

B4: the relative activity on substrate (activity on HbA1c-type αF8P = 100%) was found to be 83% and the “specific activity on substrate” value is “at least 20 mU/mg”.

With B5, the “relative activity (HbS1c/HbA1c), fold over H40-3M before modification” value was “improved by about 2.1 to 3.3 times”; the relative activity on substrate (activity on HbA1c-type αF8P = 100%) was determined as 130%; the “specific activity on substrate” value is given as “at least 20 mU/mg”.

With B6, the relative activity on substrate (activity on HbA1c-type αF8P = 100%) amounted to 104% and the “specific activity on substrate” value is “at least 20 mU/mg”.

With B7, the relative activity on substrate (activity on HbA1c-type αF8P = 100%) stood at 104% and the “specific activity on substrate” value is given as “at least 20 mU/mg”.

Turning to B8, the relative activity on substrate (activity on HbA1c-type αF8P = 100%) was determined as 93% and the “specific activity on substrate” value is recorded as “at least 20 mU/mg”.

Consider B9, for which the relative activity on substrate (activity on HbA1c-type αF8P = 100%) came out at 106% and the “specific activity on substrate” value is reported as “at least 20 mU/mg”.

With B10, the relative activity on substrate (activity on HbA1c-type αF8P = 100%) was 64%.

Take B11: the relative activity on substrate (activity on HbA1c-type αF8P = 100%) was 61%.

As to B12, the relative activity on substrate (activity on HbA1c-type αF8P = 100%) amounted to 114%.

B13: the relative activity on substrate (activity on HbA1c-type αF8P = 100%) worked out at 70%.

On to B14, for which the relative activity on substrate (activity on HbA1c-type αF8P = 100%) came to 70%.

For B15, the relative activity on substrate (activity on HbA1c-type αF8P = 100%) came out at 41%.

Consider B16, for which the relative activity on substrate (activity on HbA1c-type αF8P = 100%) is 95%.

Regarding B17, the relative activity on substrate (activity on HbA1c-type αF8P = 100%) amounted to 69%.

For B18, the relative activity on substrate (activity on HbA1c-type αF8P = 100%) worked out at 70%.
